The target in the assay is T1, full-length mouse RabGEF1 expressed as GAL-4 activation domain fusion protein (mouse, UniProt Q9JM13 1-491).
T1 construct: mature; Yeast two-hybrid prey in pACT2; also called Rabex-5
In words: yeast two-hybrid, beta-galactosidase assays. An excerpt: FIG. 2A-2C. Homology of RabGEF1 with members of a Rab5 binding protein family and direct interaction of RabGEF1 with Ras. (a) Alignment of amino acid sequences of mouse RabGEF1 (SEC ID NO:5) with the Vps9p domains of Vps9p (SEC ID NO:6), Rin1, (SEC ID NO:7), and JC265(SEC ID NO:8). The Vps9p domains of Vps9p, RIN1, and JC265 and the proposed GBH motifs I(SEC ID NO:9), II(SEC ID NO:10), and III(SEC ID NO:11) illustrated here represent those previously described. Identical amino acids or conservative substitutions present in three or four proteins are shaded. […] Different segments of the mouse RabGEF1 protein (shaded areas are Vps9p domains; black areas are putative GBH motifs) were expressed as GAL-4 activation domain fusion proteins, whereas the mouse H-Ras and yeast Ras2p proteins were expressed as DNA-binding fusion proteins. Positive interactions were assessed with both a qualitative colony-lift β-galactosidase filter assay using X-gal as the substrate (Colony color) and a quantitative liquid culture β-galactosidase assay using chlorophenol red-β-D-galactopyranoside as the substrate (Relative β-Gal units). […] The pulled-down RabGEF1 was detected using an anti-RabGEF1 antibody. […]
Yeast two-hybrid assay. […] The entire open reading frame and different segments of the open reading frame of the mouse RabGEF1 cDNA were separately subcloned, in frame, into the pACT2 vector.

These results are taken from patent US7365239 (Stanford University, dated 2008).

T1 sequence (Q9JM13 whole entry, the tested form may be a part): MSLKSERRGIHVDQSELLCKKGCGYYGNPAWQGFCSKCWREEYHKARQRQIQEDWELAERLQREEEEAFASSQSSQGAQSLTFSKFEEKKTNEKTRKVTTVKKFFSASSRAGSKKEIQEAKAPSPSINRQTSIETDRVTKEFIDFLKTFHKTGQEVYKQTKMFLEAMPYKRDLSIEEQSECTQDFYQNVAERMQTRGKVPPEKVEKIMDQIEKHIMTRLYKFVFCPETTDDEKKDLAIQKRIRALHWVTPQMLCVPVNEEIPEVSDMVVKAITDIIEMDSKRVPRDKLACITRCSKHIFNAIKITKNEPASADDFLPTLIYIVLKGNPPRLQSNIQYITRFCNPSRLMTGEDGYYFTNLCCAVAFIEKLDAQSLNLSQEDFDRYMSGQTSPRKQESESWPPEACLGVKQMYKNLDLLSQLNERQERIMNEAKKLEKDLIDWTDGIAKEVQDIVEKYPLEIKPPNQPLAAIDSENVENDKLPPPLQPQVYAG

B1: yeast Ras2p expressed as DNA-binding fusion protein (other, UniProt P04386 1-147, looked up)
chain: MKLLSSIEQACDICRLKKLKCSKEKPKCAKCLKNNWECRYSPKTKRSPLTRAHLTEVESRLERLEQLFLLIFPREDLDMILKMDSLQDIKALLTGLFVQDNVNKDAVTDRLASVETDMPLTLRQHRISATSSSEESSNKGQRQLTVSMPLNKSNIREYKLVVVGGGGVGKSALTIQLTQSHFVDEYDPTIEDSYRKQVVIDDEVSILDILDTAGQEEYSAMREQYMRNGEGFLLVYSITSKSSLDELMTYYQQILRVKDTDYVPIVVVGNKSDLENEKQVSYQDGLNMAKQMNAPFLETSAKQAINVEEAFYTLARLVRDEGGKYNKTLTENDNSKQTSQDTKGSGANSVPRNSGGHRKMSNAANGKNVNSSTTVVNARNASIESKTGLAGNQATNGKTQTDRTNIDNSTGQAGQANAQSANTVNNRVNNNSKAGQVSNAKQARKQQAAPGGNTSEASKSGSGGSCIIS
In the case of B1, the binding result was “no binding”.
